Data reported in patent US20140205612A1 (published 2014).
Substitutions are numbered along the chain they refer to.

B1: 1443_C16 (PG16) (TCN-116) (antibody, V domains shown)
VH: QEQLVESGGGVVQPGGSLRLSCLASGFTFHKYGMHWVRQAPGKGLEWVALISDDGMRKYHSDSMWGRVTISRDNSKNTLYLQFSSLKVEDTAMFFCAREAGGPIWHDDVKYYDFNDGYYNYHYMDVWGKGTTVTVSS
VL: QSALTQPASVSGSPGQTITISCNGTSSDVGGFDSVSWYQQSPGKAPKVMVFDVSHRPSGISNRFSGSKSGNTASLTISGLHIEDEGDYFCSSLTDRSHRIFGGGTKVTVLG
B2: 1456_P20 (PG20) (antibody, human IgG1, kappa, V domains shown)
VH: QVRLVQSGPEVKKPGSSVTVSCQASGGTFSSYAFTWVRQAPGQGLEWLGMVTPIFGEAKYSQRFEGRVTITADESTSTTSIELRGLTSEDTAIYYCARDRRAVPIATDNWLDPWGQGTLVTVSS
VL: DIQLTQSPSSLSASVGDRVSITCRASQTINNYLNWYQQTPGKAPKLLIYGASNLQNGVPSRFSGSGSGTDFTLTISSLQPEDFATYYCQQSFSTPRTFGQGTRLDIKR
B3: 1460_G14 (PGG14) (antibody, human IgG1, kappa, V domains shown)
VH: QVLLVQSGTEVKKPGSSVKVSCQASGGAFSSYAFSWVRQAPGQGLEWMGMITPVFGETKYAPRFQGRLTLTAEESLSTTYMELRSLTSDDTAFYYCTRDRRVVPMATDNWLDPWGQGTLVTVSS
VL: B2 VL with S20T, I21V, N30H, N31T, T39I, N53T, N56S, S76N, F92Y
B4: 1496_C09 (PG9) (TCN-109) (antibody, V domains shown)
VH: QRLVESGGGVVQPGSSLRLSCAASGFDFSRQGMHWVRQAPGQGLEWVAFIKYDGSEKYHADSVWGRLSISRDNSKDTLYLQMNSLRVEDTATYFCVREAGGPDYRNGYNYYDFYDGYYNYHYMDVWGKGTTVTVSS
VL: QSALTQPASVSGSPGQSITISCNGTSNDVGGYESVSWYQQHPGKAPKVVIYDVSKRPSGVSNRFSGSKSGNTASLTISGLQAEDEGDYYCKSLTSTRRRVFGTGTKLTVLG
B5: 1495_C14 (PGC14) (antibody, human IgG1, lambda, V domains shown)
VH: DGHLVQSGVEVKKTGATVKISCKVSGYSFIDYYLHWVQRAPGKGLEWVGLIDPENGEARYAEKFQGRVTIIADTSIDTGYMEMRSLKSEDTAVYFCAAGAVGADSGSWFDPWGQGTLVTVSS
VL: SYELTQPPSVSVSPGQTASITCSGSKLGDKYVSWYQLRPGQSPILVMYENDRRPSGIPERFSGSNSGDTATLTISGTQALDEADFYCQAWETTTTTFVFFGGGTQLTVLG

Tests used:
[1] = molecular target: HIV-1 JR-CSF Env on pseudovirus (HIV-1 JR-CSF, UniProt P20871 32-848); assay: cell-based or functional assay
[2] = molecular target: JR-FL(E168K) Env on pseudovirus (HIV-1 JR-FL); assay: cell-based or functional assay
ADA Env on pseudovirus = ADA Env on pseudovirus (HIV-1 ADA); assay: cell-based or functional assay
[3] = molecular target: 92RW020 Env on pseudovirus (HIV-1 92RW020); assay: cell-based or functional assay
[4] = molecular target: T1, recombinant monomeric gp120 JR-CSF (HIV-1 JR-CSF, UniProt P20871 32-503); assay: mAb Specificity column, ELISA screen
T1 construct: domain: gp120; also called JR-CSF gp120; JR-CSFgp120
Experimental: In anti-gp120 ELISA, recombinant gp120 (0.5 μg/ml) was captured on 384 well ELISA plates pre-coated (at 4° C. overnight) with goat anti-gp120 (5 μg/ml) in BSA-containing assay buffer (PBS with 0.05% Tween-20) for 1 hr at room temperature. After excess gp120 was removed and plates were washed thrice with assay buffer, B cell culture supernatants diluted 5-fold was added to incubate for 1 hr at room temperature. Following three washes in assay buffer, secondary HRP-conjugated goat anti-human Ig Fc in BSA-containing assay buffer was added and incubated for about 1 hr at room temperature. 3,3′,5,5′-tetramethylbenzidine (TMB) substrate was used to develop the colorimetric readouts after washing the ELISA plates 3 times.

Binder | IC50 (ug/ml), pseudovirus neutralization, TZM-bl assay [1] | IC50 (ug/ml), pseudovirus neutralization, TZM-bl assay [2] | IC50 (ug/ml), pseudovirus neutralization, TZM-bl assay (ADA Env on pseudovirus) | IC50 (ug/ml), pseudovirus neutralization, TZM-bl assay [3] | binding result [4]
B1 | 0.001 µg/mL | 0.006 µg/mL | 0.004 µg/mL | 0.09 µg/mL | 
B2 |  |  |  |  | binds
B3 |  |  |  |  | binds
B4 |  |  | 0.2 µg/mL | 0.1 µg/mL | 
B5 |  |  |  |  | binds
